Test results published in publication PMC3448639.

Experiment: 6% PFO-PAGE immunoblot
Details: glycan lost; control: wild type

B1: SR-BI (scavenger receptor class B type I; CLA-1): T175A (protein)
parent chain: MGCSAKARWAAGALGVAGLLCAVLGAVMIVMVPSLIKQQVLKNVRIDPSSLSFNMWKEIPIPFYLSVYFFDVMNPSEILKGEKPQVRERGPYVYREFRHKSNITFNNNDTVSFLEYRTFQFQPSKSHGSESDYIVMPNILVLGAAVMMENKPMTLKLIMTLAFTTLGERAFMNRTVGEIMWGYKDPLVNLINKYFPGMFPFKDKFGLFAELNNSDSGLFTVFTGVQNISRIHLVDKWNGLSKVDFWHSDQCNMINGTSGQMWPPFMTPESSLEFYSPEACRSMKLMYKESGVFEGIPTYRFVAPKTLFANGSIYPPNEGFCPCLESGIQNVSTCRFSAPLFLSHPHFLNADPVLAEAVTGLHPNQEAHSLFLDIHPVTGIPMNCSVKLQLSLYMKSVAGIGQTGKIEPVVLPLLWFAESGAMEGETLHTFYTQLVLMPKVMHYAQYVLLALGCVLLLVPVICQIRSQVGAGQRAARADSHSLACWGKGASDRTLWPTAAWSPPPAAVLRLCRSGSGHCWGLRSTLASFACRVATTLPVLEGLGPSLGGGTGS
Question: For B1, which oligomerisation is on record?
Answer: Its oligomerisation is “no change”.
